From the supplement of paper PMC10065799, “High-throughput profiling of sequence recognition by tyrosine kinases and SH2 domains using bacterial peptide display” (eLife, 2023)
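Wherever SH2 binding enrichment of the phosphorylated peptide, bacterial display is given: peptide library displayed on the E. coli surface as eCPX fusions, selected cells deep-sequenced, score is each peptide's frequency after selection divided by its frequency in the input.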
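Wherever phosphorylation enrichment, bacterial display is given: 11-residue human phosphosite peptides and single-mutation variants displayed on the E. coli surface, counted by deep sequencing, each peptide's frequency after selection divided by its frequency in the unselected input library; frequency after pTyr selection over input frequency; kinase dosed for 20-30% of maximal phosphorylation in three min.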

What follows are sequences tested against Grb2 SH2 (UniProt P62993) (assay: SH2 binding enrichment of the phosphorylated peptide, bacterial display (enrichment ratio); higher = better substrate or ligand; peptides without Tyr show the background).
Grb2 SH2, sequence (P62993 whole entry, looked up): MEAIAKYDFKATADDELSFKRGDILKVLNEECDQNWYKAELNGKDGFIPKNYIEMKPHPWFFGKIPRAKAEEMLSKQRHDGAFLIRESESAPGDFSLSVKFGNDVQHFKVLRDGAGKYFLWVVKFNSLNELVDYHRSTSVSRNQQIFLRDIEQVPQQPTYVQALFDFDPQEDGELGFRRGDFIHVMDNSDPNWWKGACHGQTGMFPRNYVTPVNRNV
AKRKGYDMRVD [NEB_Y2770] showed an SH2 binding enrichment of 0.755. In the case of NDPMEYAKQHG [ASS1_Y163_L160P], the SH2 binding enrichment is reported as 0.804. With KPGVNYFFRVS the SH2 binding enrichment was 0.863. Work on PPLMLYNPTTF [EGFR_Y270_YF] yielded an SH2 binding enrichment of 0.931. With YEEDSYSHIMA [FDPS_Y388] the SH2 binding enrichment was 0.733. QEALEYFMKQV [PIK3CA_Y1038_M1043V] gave an SH2 binding enrichment of 0.664. Sequence IRFPPYTDWNQ [ALDH3B2_Y365_H361R_YF] has an SH2 binding enrichment of 0.886. RQRTAYFSLNT [CDH1_Y68_D72N] was tested, and the SH2 binding enrichment was 0.901. With SLFNGYVYSGM [NEIL3_Y71_V76M] the SH2 binding enrichment was 1.06. IVFTSYFLTIL [TAS2R16_Y239] gave an SH2 binding enrichment of 0.918. IENKPYGMSDP [RET_Y1062_L1061P] was tested, and the SH2 binding enrichment was 0.702. For KLSCSYSHWSA [C4BPA_Y470], the SH2 binding enrichment was 0.894. ATATEYHTTSH [SLC4A1_Y46_D45E] showed an SH2 binding enrichment of 1. For PTKNDYWAMPA [WWOX_Y287_L291P], the SH2 binding enrichment was 0.732. AQESNYRLLRR [SLC20A2_Y377] showed an SH2 binding enrichment of 0.823. RLEPVYFVAPA [LAMC2_Y250_D247E] was tested, and the SH2 binding enrichment was 0.798. RPPFTYATLIH [FOXP3_Y342_R347H] showed an SH2 binding enrichment of 1.08. Sequence FNNPAYFVLEG [INPPL1_Y986_YF] has an SH2 binding enrichment of 1.01. SVVVPYEPPEL [TP53_Y220_V225L] showed an SH2 binding enrichment of 0.741. Work on VTRLWYPVCFG [ITK_Y336_R335W] yielded an SH2 binding enrichment of 1.07. Work on LQTYRYHGHSM [PDHA1_Y289] yielded an SH2 binding enrichment of 0.879. Sequence WDLPEYSFKDP [ITGA3_Y237_S235P_YF] has an SH2 binding enrichment of 0.931. In the case of DLDPNYVLSSR [CKM_Y125], the SH2 binding enrichment is reported as 0.765. In the case of NVADHYRVYKP [ATP6V0D2_Y271_G272R], the SH2 binding enrichment is reported as 0.619. VKANTYEKYWL [GATM_Y100_P105L] gave an SH2 binding enrichment of 0.993. GSERDYTFDEL [EIF2S2_Y174_E177D_YF] showed an SH2 binding enrichment of 0.919. Sequence KNSSIYVVANI [VNN1_Y134_N131S] has an SH2 binding enrichment of 0.988. With HLPAGYIIPLQ [GAA_Y822_R819P] the SH2 binding enrichment was 0.895. LAETSYVTVLE [MAGEA1_Y276_K278T] was tested, and the SH2 binding enrichment was 0.73. In the case of PDSVDYPKKGY [CTSK_Y121_R122P], the SH2 binding enrichment is reported as 0.841. In the case of VEYAKYGSLQG [RET_Y809_R813Q], the SH2 binding enrichment is reported as 0.852. In the case of DDKEYYSVHNK [MET_Y1235_Y1230D], the SH2 binding enrichment is reported as 0.813. NAMRRYIEEFQ [MNS1_Y244] gave an SH2 binding enrichment of 0.847.

Each sequence was assayed against EPHB1 (UniProt P54762) (assay: phosphorylation enrichment, bacterial display (enrichment ratio); higher = better substrate or ligand; peptides without Tyr show the background).
EPHB1, sequence (P54762 whole entry, looked up): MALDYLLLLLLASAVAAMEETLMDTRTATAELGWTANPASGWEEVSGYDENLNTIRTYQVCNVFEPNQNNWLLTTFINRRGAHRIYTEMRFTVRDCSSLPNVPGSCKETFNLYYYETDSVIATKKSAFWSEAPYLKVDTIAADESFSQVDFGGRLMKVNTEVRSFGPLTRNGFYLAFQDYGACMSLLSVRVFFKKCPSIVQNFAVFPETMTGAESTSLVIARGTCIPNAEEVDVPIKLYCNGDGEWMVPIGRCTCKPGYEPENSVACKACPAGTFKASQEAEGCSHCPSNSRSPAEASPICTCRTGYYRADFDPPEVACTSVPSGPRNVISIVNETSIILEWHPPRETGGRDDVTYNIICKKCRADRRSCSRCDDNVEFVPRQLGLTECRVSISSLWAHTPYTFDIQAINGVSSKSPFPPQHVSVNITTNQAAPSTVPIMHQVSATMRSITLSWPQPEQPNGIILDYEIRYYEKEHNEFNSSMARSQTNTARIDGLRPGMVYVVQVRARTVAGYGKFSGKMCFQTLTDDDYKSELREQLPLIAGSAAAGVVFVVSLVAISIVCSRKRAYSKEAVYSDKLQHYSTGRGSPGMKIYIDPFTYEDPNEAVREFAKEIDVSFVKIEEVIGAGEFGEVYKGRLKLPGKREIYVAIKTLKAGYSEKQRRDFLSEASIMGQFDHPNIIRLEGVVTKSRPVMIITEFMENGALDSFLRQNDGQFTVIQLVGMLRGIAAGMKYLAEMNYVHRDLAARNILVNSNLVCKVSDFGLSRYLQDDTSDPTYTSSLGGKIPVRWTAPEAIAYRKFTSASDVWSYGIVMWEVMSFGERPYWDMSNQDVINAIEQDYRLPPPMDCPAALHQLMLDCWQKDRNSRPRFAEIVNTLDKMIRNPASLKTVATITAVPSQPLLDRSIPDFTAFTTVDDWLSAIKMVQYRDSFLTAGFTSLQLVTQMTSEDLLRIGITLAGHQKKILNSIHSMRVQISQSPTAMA
Work on AKRKGYDMRVD [NEB_Y2770] yielded a phosphorylation enrichment of 0.295. With NDPMEYAKQHG [ASS1_Y163_L160P] the phosphorylation enrichment was 0.419. In the case of KPGVNYFFRVS, the phosphorylation enrichment is reported as 0.495. PPLMLYNPTTF [EGFR_Y270_YF] was tested, and the phosphorylation enrichment was 0.973. For YEEDSYSHIMA [FDPS_Y388], the phosphorylation enrichment was 0.67. With QEALEYFMKQV [PIK3CA_Y1038_M1043V] the phosphorylation enrichment was 0.467. Sequence IRFPPYTDWNQ [ALDH3B2_Y365_H361R_YF] has a phosphorylation enrichment of 0.396. RQRTAYFSLNT [CDH1_Y68_D72N] was tested, and the phosphorylation enrichment was 0.661. Sequence SLFNGYVYSGM [NEIL3_Y71_V76M] has a phosphorylation enrichment of 0.653. IVFTSYFLTIL [TAS2R16_Y239] showed a phosphorylation enrichment of 0.676. For IENKPYGMSDP [RET_Y1062_L1061P], the phosphorylation enrichment was 0.55. KLSCSYSHWSA [C4BPA_Y470] gave a phosphorylation enrichment of 0.716. For ATATEYHTTSH [SLC4A1_Y46_D45E], the phosphorylation enrichment was 0.316. PTKNDYWAMPA [WWOX_Y287_L291P] showed a phosphorylation enrichment of 18.6. Sequence AQESNYRLLRR [SLC20A2_Y377] has a phosphorylation enrichment of 0.48. Work on RLEPVYFVAPA [LAMC2_Y250_D247E] yielded a phosphorylation enrichment of 7.02. Sequence RPPFTYATLIH [FOXP3_Y342_R347H] has a phosphorylation enrichment of 1.87. For FNNPAYFVLEG [INPPL1_Y986_YF], the phosphorylation enrichment was 0.621. For SVVVPYEPPEL [TP53_Y220_V225L], the phosphorylation enrichment was 0.489. In the case of VTRLWYPVCFG [ITK_Y336_R335W], the phosphorylation enrichment is reported as 0.66. With LQTYRYHGHSM [PDHA1_Y289] the phosphorylation enrichment was 0.489. WDLPEYSFKDP [ITGA3_Y237_S235P_YF] was tested, and the phosphorylation enrichment was 0.558. In the case of DLDPNYVLSSR [CKM_Y125], the phosphorylation enrichment is reported as 0.523. NVADHYRVYKP [ATP6V0D2_Y271_G272R] gave a phosphorylation enrichment of 0.54. Work on VKANTYEKYWL [GATM_Y100_P105L] yielded a phosphorylation enrichment of 0.661. In the case of GSERDYTFDEL [EIF2S2_Y174_E177D_YF], the phosphorylation enrichment is reported as 0.577. With KNSSIYVVANI [VNN1_Y134_N131S] the phosphorylation enrichment was 0.681. HLPAGYIIPLQ [GAA_Y822_R819P] was tested, and the phosphorylation enrichment was 0.383. For LAETSYVTVLE [MAGEA1_Y276_K278T], the phosphorylation enrichment was 0.674. For PDSVDYPKKGY [CTSK_Y121_R122P], the phosphorylation enrichment was 0.529. VEYAKYGSLQG [RET_Y809_R813Q] was tested, and the phosphorylation enrichment was 0.505. In the case of DDKEYYSVHNK [MET_Y1235_Y1230D], the phosphorylation enrichment is reported as 0.563. Work on NAMRRYIEEFQ [MNS1_Y244] yielded a phosphorylation enrichment of 0.352.
